Measured values from article PMC4575486, “GDF-5 can act as a context-dependent BMP-2 antagonist” (BMC Biology, 2015).
Read-outs that look alike come from different tables or passages of the source.

Columns and labels:
[1] = target: T1, extracellular domain of human BMPR-IA (human, UniProt P36894 24-152); experiment: SPR; quality control of the recombinant ligands, as previously described (ref. 17)
[2] = target: T1, extracellular domain of human BMPR-IA
[3] = target: T1, extracellular domain of human BMPR-IA; experiment: cell-based or functional assay

T1 sequence (P36894 24-152): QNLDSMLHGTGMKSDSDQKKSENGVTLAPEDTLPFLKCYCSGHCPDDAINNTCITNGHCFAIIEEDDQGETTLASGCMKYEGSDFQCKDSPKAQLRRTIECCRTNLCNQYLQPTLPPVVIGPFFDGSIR

Row | Molecule | Kd [1] | inhibition of ALP expression induced by 20 nM BMP-2 in C2C12 cells by increasing concentrations of GDF-5 R57A, IC50 [2] | SMAD-1 phosphorylation in ATDC5 and C2C12 cells; concentration needed for phospho-SMAD levels comparable to BMP-2 [3] | bone formation in the rat orthotopic (calvaria) model; amount of protein needed for the same ossified surface area as BMP-2 or GDF-5 R57A [3] | inhibition of ALP expression induced by 20 nM BMP-2 in C2C12 cells by increasing concentrations of wild-type GDF-5, IC50 [3] | Kd ([1]; both partners purified)
1 | GDF-5 R57A (growth and differentiation factor 5, variant R57A) (ligand) | 1.6 nM | 5 nM |  |  |  | 
2 | human GDF-5 (growth and differentiation factor 5), wild type (ligand, UniProt P43026 382-501, looked up, human growth and differentiation factor 5, recombinant from E. coli; Homodimer; also called wild-type GDF-5; GDF-5WT; source: E. coli, purified (as previously described)) APLATRQGKRPSKNLKARCSRKALHVNFKDMGWDDWIIAPLEYEAFHCEGLCEFPLRSHLEPTNHAVIQTLMNSMDPESTPPTCCVPTRLSPISILFIDSANNVVYKQYEDMVVESCGCR |  |  | ~10 fold | ~20 fold | 70 nM | 20 nM
